Results from US20030148958A1 (PROCTER AND GAMBLE, published 2003).
Ends that are not written are not given here.

Each binder was assayed against corticotropin releasing factor 1 receptor (assay: cell-based or functional assay).
For CRF1R Emax in this document: reference of the scale not given here.
For CRF2R Emax in this document: reference of the scale not given here.

Row | Binder | CRF1R EC50 | CRF1R Emax
1 | ZGPPISIDLSIGLLRKMIEIEKQEKEKQQAANNRLLLDTI (C-terminal amide) [SEQ ID NO 25] | 677 nM | 92.3%
2 | ZGPPISIDLPTWLLRKMIEIEKQEKEKQQAANNRLLLDTI (C-terminal amide) [SEQ ID NO 41] | > 1000 nM | 43%
3 | ZGPPISIDLPKYLLRKMIEIEKQEKEKQQAANNRLLLDTI (C-terminal amide) [SEQ ID NO 58] | > 100 nM | 16%
4 | ZGPPISIDLPTFLLRKMIEIEKQEKEKQQAANNRLLLDTI (C-terminal amide) [SEQ ID NO 44] | 944 nM | 64%
5 | ZGPPISIDLPIVLLRKMIEIEKQEKEKQQAANNRLLLDTI (C-terminal amide) [SEQ ID NO 31] | > 1000 nM | 18%
6 | ZGPPISIDLPTDLLRKMIEIEKQEKEKQQAANNRLLLDTI (C-terminal amide) [SEQ ID NO 49] | > 1000 nM | 15%
7 | ZGPPISIDLPIILLRKMIEIEKQEKEKQQAANNRLLLDTI (C-terminal amide) [SEQ ID NO 36] | > 1000 nM | 33%
8 | ZGPPISIDLPWYLLRKMIEIEKQEKEKQQAANNRLLLDTI (C-terminal amide) [SEQ ID NO 55] | 11.6 nM | 92%
9 | ZGPPISIDLSLELLRKMIEIEKQEKEKQQAANNALLLATI (C-terminal amide) [SEQ ID NO 30] | 100 nM | 100%
10 | ZGPPISIDLPTLLLRKMIEIEKQEKEKQQAANNRLLLDTI (C-terminal amide) [SEQ ID NO 51] | > 1000 nM | 48%
11 | ZGPPISIDLPDYLLRKMIEIEKQEKEKQQAANNRLLLDTI (C-terminal amide) [SEQ ID NO 54] | 1000 nM | 10%
12 | ZGPPISIDLPPYLLRKMIEIEKQEKEKQQAANNRLLLDTI (C-terminal amide) [SEQ ID NO 57] | > 100 nM | 12%
13 | ZGPPISIDLPVYLLRKMIEIEKQEKEKQQAANNRLLLDTI (C-terminal amide) [SEQ ID NO 39] | 1000 nM | 63%
14 | ZGPPISIDLPINLLRKMIEIEKQEKEKQQAANNRLLLDTI (C-terminal amide) [SEQ ID NO 37] | > 1000 nM | 5%
15 | ZGPPISIDLPIFLLRKMIEIEKQEKEKQQAANNRLLLDTI (C-terminal amide) [SEQ ID NO 29] | > 1000 nM | 79%
16 | ZGPPISIDLPAYLLRKMIEIEKQEKEKQQAANNRLLLDTI (C-terminal amide) [SEQ ID NO 32] | 606 nM | 94%

Row | Binder | CRF1R EC50 | CRF1R Emax
17 | ZGPPISIDLPTTLLRKMIEIEKQEKEKQQAANNRLLLDTI (C-terminal amide) [SEQ ID NO 42] | > 1000 nM | 10%
18 | ZGPPISIDLPYYLLRKMIEIEKQEKEKQQAANNRLLLDTI (C-terminal amide) [SEQ ID NO 40] | 102 nM | 99%
19 | ZGPPISIDLPTKLLRKMIEIEKQEKEKQQAANNRLLLDTI (C-terminal amide) [SEQ ID NO 45] | > 1000 nM | 7%
20 | ZGPPISIDLPEYLLRKMIEIEKQEKEKQQAANNRLLLDTI (C-terminal amide) [SEQ ID NO 48] | 1000 nM | 21%
21 | ZGPPISIDLPQYLLRKMIEIEKQEKEKQQAANNRLLLDTI (C-terminal amide) [SEQ ID NO 27] | 325 nM | 100%
22 | ZGPPISIDLPILLLRKMIEIEKQEKEKQQAANNRLLLDTI (C-terminal amide) [SEQ ID NO 35] | > 1000 nM | 74%
23 | ZGPPISIDLPIDLLRKMIEIEKQEKEKQQAANNRLLLDTI (C-terminal amide) [SEQ ID NO 28] | > 1000 nM | 2%
24 | ZGPPISIDLPIPLLRKMIEIEKQEKEKQQAANNRLLLDTI (not fully specified; C-terminal amide) [SEQ ID NO 26] | > 1000 nM | 16%
25 | ZGPPISIDLPSYLLRKMIEIEKQEKEKQQAANNRLLLDTI (C-terminal amide) [SEQ ID NO 56] | > 100 nM | 14%
26 | ZGPPISIDLPTSLLRKMIEIEKQEKEKQQAANNRLLLDTI (C-terminal amide) [SEQ ID NO 43] | > 1000 nM | 10%
27 | ZGPPISIDLPTILLRKMIEIEKQEKEKQQAANNRLLLDTI (C-terminal amide) [SEQ ID NO 50] | > 1000 nM | 42%
28 | ZGPPISIDLPTPLLRKMIEIEKQEKEKQQAANNRLLLDTI (C-terminal amide) [SEQ ID NO 52] | > 1000 nM | 13%
29 | ZGPPISIDLPIKLLRKMIEIEKQEKEKQQAANNRLLLDTI (C-terminal amide) [SEQ ID NO 34] | > 1000 nM | 11%
30 | ZGPPISIDLPIALLRKMIEIEKQEKEKQQAANNRLLLDTI (C-terminal amide) [SEQ ID NO 47] | 1000 nM | 12%
31 | ZGPPISIDLPTVLLRKMIEIEKQEKEKQQAANNRLLLDTI (C-terminal amide) [SEQ ID NO 46] | > 1000 nM | 17%
32 | ZGPPISIDLPIRLLRKMIEIEKQEKEKQQAANNRLLLDTI (C-terminal amide) [SEQ ID NO 38] | > 1000 nM | 11%

What follows are binders tested against T1, corticotropin releasing factor 2 receptor (assay: cell-based or functional assay).
T1 sequence (Q13324 whole entry, species assumed, looked up): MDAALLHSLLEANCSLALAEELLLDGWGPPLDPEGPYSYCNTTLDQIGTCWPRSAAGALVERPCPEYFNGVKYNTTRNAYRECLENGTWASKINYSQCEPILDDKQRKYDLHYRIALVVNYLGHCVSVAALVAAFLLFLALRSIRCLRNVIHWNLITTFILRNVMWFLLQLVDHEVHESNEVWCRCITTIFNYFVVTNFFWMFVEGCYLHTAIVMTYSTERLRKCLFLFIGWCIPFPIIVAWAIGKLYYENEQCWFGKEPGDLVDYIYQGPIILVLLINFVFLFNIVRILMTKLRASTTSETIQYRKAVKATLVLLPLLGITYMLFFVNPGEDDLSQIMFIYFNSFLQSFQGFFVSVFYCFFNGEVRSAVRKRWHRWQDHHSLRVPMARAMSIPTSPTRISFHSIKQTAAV

Row | Binder | CRF2R EC50 | CRF2R Emax
33 | SQEPPISLDLPLELLREVLEMTKADQLAQQAHSNRKLLDIA-NH2 [SEQ ID NO 89] | 100 nM | 12.7%
34 | IVLSLDVPIGLLQILLEQEKARAAREQATTNARILARV-NH2 [SEQ ID NO 121] | 5.67 nM | 
35 | ZGPPISIDLSIGLLRKMIEIEKQEKEKQQAANNRLLLDTI (C-terminal amide) [SEQ ID NO 25] | 81 nM | 81.9%
36 | ZGPPISIDLPTWLLRKMIEIEKQEKEKQQAANNRLLLDTI (C-terminal amide) [SEQ ID NO 41] | 18.3 nM | 100%
37 | ZGPPISIDLPQQLLRKMIEIEKQEKEKQQAANNRLLLDTI (C-terminal amide) [SEQ ID NO 198] | 29.9 nM | 100%
38 | ZGPPISIDLPKYLLRKMIEIEKQEKEKQQAANNRLLLDTI (C-terminal amide) [SEQ ID NO 58] | 71.6 nM | 100%
39 | ZGPPISIDLPTFLLRKMIEIEKQEKEKQQAANNRLLLDTI (C-terminal amide) [SEQ ID NO 44] | 19.1 nM | 87%
40 | ZGPPISIDLPIVLLRKMIEIEKQEKEKQQAANNRLLLDTI (C-terminal amide) [SEQ ID NO 31] | 30.8 nM | 100%
41 | ZGPPISIDLPTDLLRKMIEIEKQEKEKQQAANNRLLLDTI (C-terminal amide) [SEQ ID NO 49] | > 100 nM | 37%
42 | ZGPPISIDLPIILLRKMIEIEKQEKEKQQAANNRLLLDTI (C-terminal amide) [SEQ ID NO 36] | 14.8 nM | 73%
43 | ZGPPISIDLPWYLLRKMIEIEKQEKEKQQAANNRLLLDTI (C-terminal amide) [SEQ ID NO 55] | 7.95 nM | 95%
44 | ZGPPISIDLSLELLRKMIEIEKQEKEKQQAANNALLLATI (C-terminal amide) [SEQ ID NO 30] | 18.7 nM | 85.5%
45 | ZGPPISIDLPTLLLRKMIEIEKQEKEKQQAANNRLLLDTI (C-terminal amide) [SEQ ID NO 51] | 20.6 nM | 100%
46 | ZGPPISIDLPDYLLRKMIEIEKQEKEKQQAANNRLLLDTI (C-terminal amide) [SEQ ID NO 54] | 100 nM | 11%
47 | ZGPPISIDLPPYLLRKMIEIEKQEKEKQQAANNRLLLDTI (C-terminal amide) [SEQ ID NO 57] | > 100 nM | 46%
48 | ZGPPISIDLPVYLLRKMIEIEKQEKEKQQAANNRLLLDTI (C-terminal amide) [SEQ ID NO 39] | 58.2 nM | 94%
49 | ZGPPISIDLPINLLRKMIEIEKQEKEKQQAANNRLLLDTI (C-terminal amide) [SEQ ID NO 37] | > 100 nM | 51%
50 | ZGPPISIDLPIFLLRKMIEIEKQEKEKQQAANNRLLLDTI (C-terminal amide) [SEQ ID NO 29] | 16 nM | 100%
51 | ZGPPISIDLPAYLLRKMIEIEKQEKEKQQAANNRLLLDTI (C-terminal amide) [SEQ ID NO 32] | 20.2 nM | 98%

Row | Binder | CRF2R EC50 | CRF2R Emax
52 | ZGPPISIDLPTTLLRKMIEIEKQEKEKQQAANNRLLLDTI (C-terminal amide) [SEQ ID NO 42] | > 100 nM | 88%
53 | ZGPPISIDLPQVLLRKMIEIEKQEKEKQQAANNRLLLDTI (C-terminal amide) [SEQ ID NO 197] | 48.1 nM | 94%
54 | ZGPPISIDLPYYLLRKMIEIEKQEKEKQQAANNRLLLDTI (C-terminal amide) [SEQ ID NO 40] | 6.95 nM | 93%
55 | ZGPPISIDLPTKLLRKMIEIEKQEKEKQQAANNRLLLDTI (C-terminal amide) [SEQ ID NO 45] | > 100 nM | 44%
56 | ZGPPISIDLPEYLLRKMIEIEKQEKEKQQAANNRLLLDTI (C-terminal amide) [SEQ ID NO 48] | 100 nM | 14%
57 | ZGPPISIDLPQYLLRKMIEIEKQEKEKQQAANNRLLLDTI (C-terminal amide) [SEQ ID NO 27] | 10.7 nM | 96%
58 | ZGPPISIDLPILLLRKMIEIEKQEKEKQQAANNRLLLDTI (C-terminal amide) [SEQ ID NO 35] | 15.6 nM | 88%
59 | ZGPPISIDLPIDLLRKMIEIEKQEKEKQQAANNRLLLDTI (C-terminal amide) [SEQ ID NO 28] | 100 nM | 15%
60 | ZGPPISIDLPIPLLRKMIEIEKQEKEKQQAANNRLLLDTI (not fully specified; C-terminal amide) [SEQ ID NO 26] | 91.8 nM | 86%
61 | ZGPPISIDLPSYLLRKMIEIEKQEKEKQQAANNRLLLDTI (C-terminal amide) [SEQ ID NO 56] | 50.4 nM | 87%
62 | ZGPPISIDLPTSLLRKMIEIEKQEKEKQQAANNRLLLDTI (C-terminal amide) [SEQ ID NO 43] | > 100 nM | 67%
63 | ZGPPISIDLPTILLRKMIEIEKQEKEKQQAANNRLLLDTI (C-terminal amide) [SEQ ID NO 50] | 19 nM | 94%
64 | ZGPPISIDLPTPLLRKMIEIEKQEKEKQQAANNRLLLDTI (C-terminal amide) [SEQ ID NO 52] | > 100 nM | 10%
65 | ZGPPISIDLPIKLLRKMIEIEKQEKEKQQAANNRLLLDTI (C-terminal amide) [SEQ ID NO 34] | > 100 nM | 45%
66 | ZGPPISIDLPIALLRKMIEIEKQEKEKQQAANNRLLLDTI (C-terminal amide) [SEQ ID NO 47] | > 100 nM | 66%
67 | ZGPPISIDLPTVLLRKMIEIEKQEKEKQQAANNRLLLDTI (C-terminal amide) [SEQ ID NO 46] | > 100 nM | 100%
68 | ZGPPISIDLPIRLLRKMIEIEKQEKEKQQAANNRLLLDTI (C-terminal amide) [SEQ ID NO 38] | 71.9 nM | 91%
69 | IVLSLDVPIGLLQILLEQEKARAAREQATTNARILARV-NH2 [SEQ ID NO 107] | 12.1 nM | 
70 | IVLSLDVPIGLLQILLEQEKARAAREQATTNARILARV-NH2 [SEQ ID NO 3] | 12.1 nM | 
